One experiment deals with T1, mouse albumin (mouse, UniProt P07724 25-608).
T1 construct: also called recombinant mouse Albumin; mouse serum albumin
Briefly: SPR (Biacore T200), antibody captured by anti-human Fc antibody, mouse albumin as analyte, 25 degrees C. The method, then: Binding activities of the produced antibodies against mouse albumin were evaluated using Biacore T200 (Cytiva).
As the running buffer, 50 mM Na Phosphate (pH 7.4), 150 mM NaCl, 0.05% Tween20 was used, and the evaluation was performed at 25 degrees C. First, anti-human Fc antibody (Cytiva) was used as a ligand-capturing molecule. Anti-human Fc antibody (Cytiva) was solid-phased on a Series S Sensor Chip CM4 (Cytiva) using an Amine Coupling Kit (Cytiva). Antibody solution prepared using the running buffer was allowed to interact with this CM4 sensor chip to capture approximately 120 RU of the antibody. Mouse albumin (Bioscience) was diluted to 0 and 300 nM with the running buffer and allowed to bind to the captured antibody. The chip was regenerated using 3 M MgCl₂, and measurements were performed by repeatedly capturing the antibodies. Dissociation constant (KD) of each antibody for mouse albumin was calculated using Biacore T200 Evaluation Software 2.0. Specifically, the association rate constant ka (L/mol/s) and the dissociation rate constant kd (1/s) were calculated by global fitting of the sensorgrams obtained by measurement with the 1:1 Langmuir binding model, and the dissociation constant KD (mol/L) was calculated from these values.
(SPR reads the build-up and loss of mass on a sensor chip optically.)

Experiment [1] concerns the target T2, human soluble IL-6R (human, UniProt P08887 20-357, limits assumed).
T2 construct: Soluble form; also called sIL6R; Human IL-6R
T2 sequence (looked up): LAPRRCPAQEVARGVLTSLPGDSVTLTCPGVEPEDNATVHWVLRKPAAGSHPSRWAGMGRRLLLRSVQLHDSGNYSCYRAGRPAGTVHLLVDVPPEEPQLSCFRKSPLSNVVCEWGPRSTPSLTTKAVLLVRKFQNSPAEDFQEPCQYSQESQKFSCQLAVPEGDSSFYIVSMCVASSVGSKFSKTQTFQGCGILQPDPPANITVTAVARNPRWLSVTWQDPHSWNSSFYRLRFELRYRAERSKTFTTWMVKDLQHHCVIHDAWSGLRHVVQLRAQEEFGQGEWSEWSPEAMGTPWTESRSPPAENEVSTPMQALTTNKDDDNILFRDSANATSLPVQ
The experiment in a line: in vivo KD in mouse plasma (albumin present), from total antibody, free and bound sIL6R 5 min after sIL6R; antibody 1 mg/kg IV. As to the method: (§1) Next, free sIL6R in plasma was measured. The concentration of free sIL6R in plasma was measured on a fully automated ELISA system (Gyrolab xP workstation). First, sIL6R prepared at 23.4, 46.9, 93.8, 188, 375, 750, and 1500 ng/mL using a Protein-Free (PBS) Blocking Buffer (Thermo Scientific) was used as solutions for preparing the calibration curve. Mouse plasma samples were used in the measurements without diluting them. A solution of biotin-labeled H54 diluted to 10 micro g/mL using a Protein-Free (PBS) Blocking Buffer was used as a solution of the sIL6R-capturing molecule. Alexa Fluor (registered trademark) 647-labeled anti-human IL-6R antibody (R&D Systems) diluted to 1 micro g/mL using a Protein-Free (PBS) Blocking Buffer was used as a solution of the human IL-6R-detection molecule. PBS (pH 7.4) containing 0.05% TWEEN was used as a washing solution. The calibration curve solutions, mouse plasma samples, sIL6R-capturing molecule solution, sIL6R-detection molecule solution, and the washing solution were placed onto a PCR plate, and then the PCR plate was sealed with a plate sealer. After the PCR plate and the Bioaffy 200 disc were placed in the Gyrolab xP workstation, measurements were taken. Using the data processed by the Gyros Evaluater 3.6.2.30 software and the calibration curve concentrations, the concentration of free sIL6R in plasma was calculated by logistic regression using the XLfit 5.5.0.5 software.
Additionally, bound sIL6R in plasma was measured. The concentration of bound sIL6R in plasma was measured on an electrospray ionization mass spectrometer connected to a high-performance liquid chromatography (LC/ESI-MS/MS). First, H54//IC17 and sIL6R were mixed, and solutions for preparing the calibration curve of bound sIL6R were prepared at theoretical plasma concentrations of 0.0468, 0.467, 4.60, and 20.1 nmol/mL. The solutions for preparing the calibration curve and 1 or 2 micro L of a plasma sample were added to 75 or 150 micro g of magnetic beads (Magnosphere MS300/Carboxyl, JSR) to which anti-delta GK antibodies were solid-phased, and this was shaken at 25 degrees C. for one hour.

Experiment [2] addresses T2, human soluble IL-6R. Briefly: in vivo KD in mouse plasma (albumin present), from total antibody, free and bound sIL6R 5 min after sIL6R; antibody 0.2 mg/kg IV. As to the method:
as §1
Additionally, bound sIL6R in plasma was measured. The concentration of bound sIL6R in plasma was measured on an electrospray ionization mass spectrometer connected to a high-performance liquid chromatography (LC/ESI-MS/MS). First, H54//IC17 and sIL6R were mixed, and solutions for preparing the calibration curve of bound sIL6R were prepared at theoretical plasma concentrations of 0.0468, 0.467, 4.60, and 20.1 nmol/mL. […]

The target in experiment [3] is T2, human soluble IL-6R. Briefly: SPR (Biacore T200), antibody captured on Protein G, human IL-6R as analyte, 37 degrees C, no albumin. As to the method:
Binding activities of the produced albumin switch molecules against human IL-6R were evaluated using Biacore T200 (Cytiva). As the running buffer, 50 mM Na Phosphate (pH 7.4), 150 mM NaCl, 0.05% Tween20 was used, and the evaluation was performed at 37 degrees C. First, Protein G (CALBIOCHEM) was used as a ligand-capturing molecule. Protein G (CALBIOCHEM) was solid-phased on a Series S Sensor Chip CM4 (Cytiva) using an Amine Coupling Kit (Cytiva). Antibody solution prepared using the running buffer was allowed to interact with this CM4 sensor chip to capture approximately 200 RU of the antibody. Human IL-6R used in the present measurement was prepared by an approach described in WO2018097307 (Example 3-2). Human IL-6R was diluted to 0, 100, and 400 nM with the running buffer, and allowed to bind to the captured antibody. The chip was regenerated using 3 M MgCl₂, and measurements were performed by repeatedly capturing the antibodies. Dissociation constant (KD) of each antibody for human IL-6R was calculated using Biacore T200 Evaluation Software 2.0. Specifically, the association rate constant ka (L/mol/s) and the dissociation rate constant kd (1/s) were calculated by global fitting of the sensorgrams obtained by measurement with the 1:1 Langmuir binding model, and the dissociation constant KD (mol/L) was calculated from these values.

In experiment [4] the target is T2, human soluble IL-6R. Briefly: Gyrolab xP immunoassay of antibody-antigen complex in C57BL/6J mouse plasma (albumin present), 1 nM antibody, 4 nM antigen.

The Kd is the free concentration of one partner at which half of the binding sites on the other are occupied at equilibrium, for simple one-to-one binding. Higher therefore signals a looser complex. The koff is the rate constant with which the complex falls apart. A lower koff goes with a long-lived complex. The kon is the second-order rate constant of association. Higher therefore signals faster complex formation.

B1: ABD094(L)-H54//IC17 (bispecific antibody, human IgG1, kappa)
heavy 1: QVQLQESGPGLVKPSETLSLTCAVSGYSISDDQAWSWVRQPPGEGLEWIGYISYSGITNYNPSLKGRVTISRDTSKNQFSLKLSSVTAADTAAYYCARSLARTTAMDYWGEGTLVTVSSASTKGPSVFPLAPSSKSTSGGTAALGCLVEDYFPEPVTVSWNSGALTSGVHTFPAVLQSSGLYSLSSVVTVPSSSLGTQTYICNVNHKPSNTKVDERVEPKSCDKTHTCPPCPAPELRRGPSVFLFPPKPKDTLMISRTPEVTCVVVDVSHEDPEVKFNWYVDGVEVHNAKTKPREEQYNSTYRVVSVLTVLHQDWLNGKEYKCKVSNKALPAPIEKTISKAKGQPREPQVCTLPPSREEMTKNQVSLSCAVKGFYPSDIAVEWESNGQPENNYKTTPPVLDSDGSFFLVSKLTVDKSRWQQGNVFSCSVMHEALHNHYTQKSLSLSP
light 1: LAEAKEAANAELDSYGVSDFYKRLIDKAKTVEGVEALKDAILAALPDIQMTQSPSSLSASVGDSVTITCQASQDISSYLNWYQQKPGKAPELLIYYGSELHSGVPSRFSGSGSGTDFTFTISSLEAEDAATYYCQQGNSLPYTFGQGTKVEIERTVAAPSVFIFPPSDRKLKSGTASVVCLLNNFYPREAKVQWKVDNALQSGNSQESVTEQDSKDSTYSLSSTLTLSKADYEKHKVYACEVTHQGLSSPVTKSFNRGEC
heavy 2: not shown
light 2: QVQLQQSGPQLVRPGASVKISCKASGYSFTSYWMHWVNQRPGQGLEWIGMIDPSYSETRLNQKFKDKATLTVDKSSSTAYMQLSSPTSEDSAVYYCALYGNYFDYWGQGTTLTVSSASVAAPSVFIFPPSDEQLKSGTASVVCLLNNFYPREAKVQWKVDNALQSGNSQESVTEQDSKDSTYSLSSTLTLSKADYEKHKVYACEVTHQGLSSPVTKSFNRGEC
Turning to B1, the Kd with mouse albumin came to 11.6 nM; in the experiment with human soluble IL-6R [1], 57.3 nM; with human soluble IL-6R [2], 49.1 nM; with human soluble IL-6R [3], 2.65 nM. Further, the values for the koff with mouse albumin and with human soluble IL-6R [3] were 0.00131 s⁻¹ and 0.00118 s⁻¹, respectively. Also, the values for the kon with mouse albumin and in the experiment with human soluble IL-6R [3] were 113000 M⁻¹ s⁻¹ and 445000 M⁻¹ s⁻¹, respectively.

B2: ABD094(H/L).N10-H54//IC17 (bispecific antibody, human IgG1, kappa)
heavy 1: LAEAKEAANAELDSYGVSDFYKRLIDKAKTVEGVEALKDAILAALPGQVQLQESGPGLVKPSETLSLTCAVSGYSISDDQAWSWVRQPPGEGLEWIGYISYSGITNYNPSLKGRVTISRDTSKNQFSLKLSSVTAADTAAYYCARSLARTTAMDYWGEGTLVTVSSASTKGPSVFPLAPSSKSTSGGTAALGCLVEDYFPEPVTVSWNSGALTSGVHTFPAVLQSSGLYSLSSVVTVPSSSLGTQTYICNVNHKPSNTKVDERVEPKSCDKTHTCPPCPAPELRRGPSVFLFPPKPKDTLMISRTPEVTCVVVDVSHEDPEVKFNWYVDGVEVHNAKTKPREEQYNSTYRVVSVLTVLHQDWLNGKEYKCKVSNKALPAPIEKTISKAKGQPREPQVCTLPPSREEMTKNQVSLSCAVKGFYPSDIAVEWESNGQPENNYKTTPPVLDSDGSFFLVSKLTVDKSRWQQGNVFSCSVMHEALHNHYTQKSLSLSP
light 1: LAEAKEAANAELDSYGVSDFYKRLIDKAKTVEGVEALKDAILAALPGDIQMTQSPSSLSASVGDSVTITCQASQDISSYLNWYQQKPGKAPELLIYYGSELHSGVPSRFSGSGSGTDFTFTISSLEAEDAATYYCQQGNSLPYTFGQGTKVEIERTVAAPSVFIFPPSDRKLKSGTASVVCLLNNFYPREAKVQWKVDNALQSGNSQESVTEQDSKDSTYSLSSTLTLSKADYEKHKVYACEVTHQGLSSPVTKSFNRGEC
heavy 2: not shown
light 2: B1 light 2
notes: ABD094 linked via N10 linker (G) at VH and VL N-termini of the IL-6R arm; also called ABD094(H/L).NTO-H54//IC17; ABD094(H/L).NO-H54//IC17
B2: the “decrease in the signal derived from the complex, compared to H54//IC17” value with human soluble IL-6R [4] was determined as 95%.

B3: ABD094(H/L).N02-H54//IC17 (bispecific antibody, human IgG1, kappa)
heavy 1: LAEAKEAANAELDSYGVSDFYKRLIDKAKTVEGVEALKDAILAALPGGGGSQVQLQESGPGLVKPSETLSLTCAVSGYSISDDQAWSWVRQPPGEGLEWIGYISYSGITNYNPSLKGRVTISRDTSKNQFSLKLSSVTAADTAAYYCARSLARTTAMDYWGEGTLVTVSSASTKGPSVFPLAPSSKSTSGGTAALGCLVEDYFPEPVTVSWNSGALTSGVHTFPAVLQSSGLYSLSSVVTVPSSSLGTQTYICNVNHKPSNTKVDERVEPKSCDKTHTCPPCPAPELRRGPSVFLFPPKPKDTLMISRTPEVTCVVVDVSHEDPEVKFNWYVDGVEVHNAKTKPREEQYNSTYRVVSVLTVLHQDWLNGKEYKCKVSNKALPAPIEKTISKAKGQPREPQVCTLPPSREEMTKNQVSLSCAVKGFYPSDIAVEWESNGQPENNYKTTPPVLDSDGSFFLVSKLTVDKSRWQQGNVFSCSVMHEALHNHYTQKSLSLSP
light 1: LAEAKEAANAELDSYGVSDFYKRLIDKAKTVEGVEALKDAILAALPGGGGSDIQMTQSPSSLSASVGDSVTITCQASQDISSYLNWYQQKPGKAPELLIYYGSELHSGVPSRFSGSGSGTDFTFTISSLEAEDAATYYCQQGNSLPYTFGQGTKVEIERTVAAPSVFIFPPSDRKLKSGTASVVCLLNNFYPREAKVQWKVDNALQSGNSQESVTEQDSKDSTYSLSSTLTLSKADYEKHKVYACEVTHQGLSSPVTKSFNRGEC
heavy 2: not shown
light 2: B1 light 2
Take B3: in the experiment with human soluble IL-6R [4], the “decrease in the signal derived from the complex, compared to H54//IC17” value amounted to 55%.

These data come from patent US20260209363A1 (Chugai, published 2026).
